Measured values taken from the supplement of paper PMC10567573.

B1: HDAC6 (parent)
chain: DLMETTQYMNEGELRVLADTYDSV

Variants of: B1
Experiment: protein stability index of a GFP-peptide fusion (GPS, HEK-293T) (PSI 1-6); higher = more stable
Settings: c terminus: a fixed tail appended
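Further: lentivirally expressed fusions sorted by FACS into six bins by GFP to DsRed ratio, PSI derived from sequencing read proportions per bin multiplied by bin number.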

Row | Variant | protein stability index
1 | DLMETCQYMNEGELRVLADTYDSV | 2.5
2 | DLMETMQYMNEGELRVLADTYDSV | 1.63
3 | DLMETKQYMNEGELRVLADTYDSV | 1.02
4 | DLMETGQYMNEGELRVLADTYDSV | 3.57
5 | DLMETYQYMNEGELRVLADTYDSV | 1.66
6 | DLMETHQYMNEGELRVLADTYDSV | 2.29
7 | DLMETFQYMNEGELRVLADTYDSV | 1.44
8 | DLMETQQYMNEGELRVLADTYDSV | 1.94
9 | DLMETEQYMNEGELRVLADTYDSV | 2.88
10 | DLMETNQYMNEGELRVLADTYDSV | 2.42
11 | DLMETWQYMNEGELRVLADTYDSV | 1.73
12 | DLMETSQYMNEGELRVLADTYDSV | 1.56
13 | DLMETVQYMNEGELRVLADTYDSV | 1.46
14 | DLMETPQYMNEGELRVLADTYDSV | 2.3
15 | DLMETAQYMNEGELRVLADTYDSV | 1.75
16 | DLMETRQYMNEGELRVLADTYDSV | 2.24
17 | DLMNTTQYMNEGELRVLADTYDSV | 1.98
18 | DLMGTTQYMNEGELRVLADTYDSV | 1.7
19 | DLMCTTQYMNEGELRVLADTYDSV | 1.74
20 | DLMSTTQYMNEGELRVLADTYDSV | 1.78
21 | DLMTTTQYMNEGELRVLADTYDSV | 3
22 | DLMITTQYMNEGELRVLADTYDSV | 1.11
23 | DLMQTTQYMNEGELRVLADTYDSV | 3.94
24 | DLMHTTQYMNEGELRVLADTYDSV | 2.18

Row | Variant | protein stability index
25 | DLMMTTQYMNEGELRVLADTYDSV | 1.31
26 | DLMRTTQYMNEGELRVLADTYDSV | 3.36
27 | DLMFTTQYMNEGELRVLADTYDSV | 1.48
28 | DLMYTTQYMNEGELRVLADTYDSV | 1.51
29 | DLMVTTQYMNEGELRVLADTYDSV | 1.83
30 | DLMDTTQYMNEGELRVLADTYDSV | 2.52
31 | DLMPTTQYMNEGELRVLADTYDSV | 2.23
32 | DLMWTTQYMNEGELRVLADTYDSV | 1.5
33 | DLMKTTQYMNEGELRVLADTYDSV | 2.09
34 | DLMATTQYMNEGELRVLADTYDSV | 2.03
35 | DLMEVTQYMNEGELRVLADTYDSV | 1.5
36 | DLMELTQYMNEGELRVLADTYDSV | 1.39
37 | DLMEWTQYMNEGELRVLADTYDSV | 1.61
38 | DLMENTQYMNEGELRVLADTYDSV | 2.32
39 | DLMEITQYMNEGELRVLADTYDSV | 2.67
40 | DLMEGTQYMNEGELRVLADTYDSV | 3.72
41 | DLMESTQYMNEGELRVLADTYDSV | 1.96
42 | DLMEETQYMNEGELRVLADTYDSV | 2.54
43 | DLMEYTQYMNEGELRVLADTYDSV | 1.38
44 | DLMEKTQYMNEGELRVLADTYDSV | 2.9
45 | DLMECTQYMNEGELRVLADTYDSV | 2.38
46 | DLMEPTQYMNEGELRVLADTYDSV | 1.72
47 | DLMEQTQYMNEGELRVLADTYDSV | 1.99
48 | DLMEHTQYMNEGELRVLADTYDSV | 1.89

Row | Variant | protein stability index
49 | DLMEDTQYMNEGELRVLADTYDSV | 4.43
50 | DLMEMTQYMNEGELRVLADTYDSV | 1.71
51 | DLMEFTQYMNEGELRVLADTYDSV | 2.03
52 | DLMERTQYMNEGELRVLADTYDSV | 2.56
53 | DLMETTQYMFEGELRVLADTYDSV | 1.05
54 | DLMETTQYMDEGELRVLADTYDSV | 3.95
55 | DLMETTQYMMEGELRVLADTYDSV | 4.08
56 | DLMETTQYMQEGELRVLADTYDSV | 2.07
57 | DLMETTQYMPEGELRVLADTYDSV | 4.49
58 | DLMETTQYMGEGELRVLADTYDSV | 3.14
59 | DLMETTQYMEEGELRVLADTYDSV | 2.91
60 | DLMETTQYMYEGELRVLADTYDSV | 3.32
61 | DLMETTQYMTEGELRVLADTYDSV | 2.21
62 | DLMETTQYMREGELRVLADTYDSV | 1.75
63 | DLMETTQYMVEGELRVLADTYDSV | 1.8
64 | DLMETTQYMCEGELRVLADTYDSV | 1.88
65 | DLMETTQYMSEGELRVLADTYDSV | 1.74
66 | DLMETTQYMAEGELRVLADTYDSV | 1.98
67 | DLMETTQYMHEGELRVLADTYDSV | 2.57
68 | DLMETTQYMNAGELRVLADTYDSV | 2.15
69 | DLMETTQYMNMGELRVLADTYDSV | 3.15
70 | DLMETTQYMNSGELRVLADTYDSV | 2.95
71 | DLMETTQYMNTGELRVLADTYDSV | 2.9
72 | DLMETTQYMNVGELRVLADTYDSV | 2.45

Row | Variant | protein stability index
73 | DLMETTQYMNNGELRVLADTYDSV | 3.13
74 | DLMETTQYMNDGELRVLADTYDSV | 1.69
75 | DLMETTQYMNHGELRVLADTYDSV | 2.78
76 | DLMETTQYMNIGELRVLADTYDSV | 1.86
77 | DLMETTQYMNLGELRVLADTYDSV | 2.6
78 | DLMETTQYMNRGELRVLADTYDSV | 3.19
79 | DLMETTQYMNFGELRVLADTYDSV | 2
80 | DLMETTQYMNCGELRVLADTYDSV | 2.47
81 | DLMETTQYMNKGELRVLADTYDSV | 2.89
82 | DLMETTQYMNGGELRVLADTYDSV | 3.58
83 | DLMETTQYMNQGELRVLADTYDSV | 2.6
84 | DLMETTQYMNPGELRVLADTYDSV | 3.65
85 | DHMETTQYMNEGELRVLADTYDSV | 5.04
86 | DFMETTQYMNEGELRVLADTYDSV | 3.49
87 | DNMETTQYMNEGELRVLADTYDSV | 4.32
88 | DRMETTQYMNEGELRVLADTYDSV | 4.52
89 | DEMETTQYMNEGELRVLADTYDSV | 4.57
90 | DAMETTQYMNEGELRVLADTYDSV | 2.33
91 | DTMETTQYMNEGELRVLADTYDSV | 4.52
92 | DCMETTQYMNEGELRVLADTYDSV | 3.12
93 | DYMETTQYMNEGELRVLADTYDSV | 3.88
94 | DVMETTQYMNEGELRVLADTYDSV | 1.62
